Experimental data from US20090232830A1.

How the values were obtained:
Assay in all cases: cell-based or functional assay
[1] = molecular target: 14/00/4 envelope protein (HIV-1)
[2] = molecular target: 24/00/4 envelope protein (HIV-1)
[3] = molecular target: 24/008 envelope protein (HIV-1)
[4] = molecular target: 93BR029 envelope protein (HIV-1)
[5] = molecular target: CA1 envelope protein (HIV-1)
[6] = molecular target: GXE-14 envelope protein (HIV-1)
[7] = molecular target: LY109 envelope protein (HIV-1)
[8] = molecular target: MACS#4 envelope protein (HIV-1)
[9] = molecular target: NYU1423 envelope protein (HIV-1)
[10] = molecular target: R2 envelope protein (HIV-1)
[11] = molecular target: VI1249 envelope protein (HIV-1)
[12] = molecular target: VI1273 envelope protein (HIV-1)
[13] = molecular target: VI1399 envelope protein (HIV-1)
[14] = molecular target: VI1793 envelope protein (HIV-1)
[15] = molecular target: VI423 envelope protein (HIV-1)
[16] = molecular target: VI843 envelope protein (HIV-1)
[17] = molecular target: 14/00/4 (A662) mutant Env (HIV-1)
[18] = molecular target: LY109(N662T) mutant Env (HIV-1)
[19] = molecular target: NYU1026 (T662) mutant Env (HIV-1)
[20] = molecular target: NYU1026 envelope protein (HIV-1)
[21] = molecular target: NYU1423 (T662) mutant Env (HIV-1)

| Substance | neutralization, 50% inhibitory concentration [1] [µg/mL] | neutralization, 50% inhibitory concentration [2] [µg/mL] | neutralization, 50% inhibitory concentration [3] [µg/mL] | neutralization, 50% inhibitory concentration [4] [µg/mL] | neutralization, 50% inhibitory concentration [5] [µg/mL] | neutralization, 50% inhibitory concentration [6] [µg/mL] | neutralization, 50% inhibitory concentration [7] [µg/mL] | neutralization, 50% inhibitory concentration [8] [µg/mL] | neutralization, 50% inhibitory concentration [9] [µg/mL] | neutralization, 50% inhibitory concentration [10] [µg/mL] | neutralization, 50% inhibitory concentration [11] [µg/mL] | neutralization, 50% inhibitory concentration [12] [µg/mL] | neutralization, 50% inhibitory concentration [13] [µg/mL] | neutralization, 50% inhibitory concentration [14] [µg/mL] | neutralization, 50% inhibitory concentration [15] [µg/mL] | neutralization, 50% inhibitory concentration [16] [µg/mL] | also measured |
| --- | --- | --- | --- | --- | --- | --- | --- | --- | --- | --- | --- | --- | --- | --- | --- | --- | --- |
| 2G12 (antibody) | > 50 | > 50 | 0.78 | 18.8 | > 50 | > 50 | > 25 | 4.69 | 25 | > 50 | > 50 | 9.38 | 50 | 6.25 | 25 | 6.25 | – |
| two-domain soluble CD4 (from UniProt P01730 26-208) (receptor) | 0.59 | > 50 | 4.69 | < 0.39 | < 0.39 | 9.34 | > 25 | 1.56 | 25 | 0.78 | 3.13 | > 50 | 6.25 | 25 | 50 | > 50 | – |
| Mab 2F5 (antibody) | < 0.39 | 1.17 | > 50 | 0.39 | > 12.5 | 3.13 | 6.64 | 3.13 | 25 | 0.78 | 0.98 | 3.13 | 1.56 | 1.17 | 1.96 | > 50 | neutralization ID50 [17]: 6.25 µg/mL; neutralization ID50 [1]: 0.45 µg/mL; Mab ID50 (neutralization) [7]: 3.1 µg/mL; Mab ID50 (neutralization) [18]: 0.39 µg/mL; neutralization ID50 [19]: 0.31 µg/mL; neutralization ID50 [20]: 3.13 µg/mL; Mab ID50 (neutralization) [21]: 12.5 µg/mL; neutralization ID50 [21]: 10.4 µg/mL; Mab ID50 (neutralization) [9]: 25 µg/mL; neutralization ID50 [9]: 17.7 µg/mL |
| X5 (antibody) | > 25 | > 25 | > 25 | < 25 | > 25 | > 25 | > 25 | 25 | 25 | < 6.25 | 25 | > 25 | < 25 | > 25 | < 6.25 | > 25 | – |
| Z13 (antibody) | > 25 | > 25 | > 25 | > 25 | > 25 | > 25 | > 25 | > 25 | – | > 25 | > 25 | > 25 | > 25 | > 25 | > 25 | > 25 | – |
| Mab 4E10 (antibody) | 1.96 | 3.91 | 25 | 0.39 | 12.5 | 13.3 | 18.8 | 7.82 | 25 | 3.13 | 0.98 | 6.25 | 3.13 | 3.13 | 6.25 | 12.5 | neutralization ID50 [17]: 9.34 µg/mL; neutralization ID50 [1]: 0.9 µg/mL; Mab ID50 (neutralization) [7]: 12.5 µg/mL; Mab ID50 (neutralization) [18]: 0.78 µg/mL; neutralization ID50 [19]: 0.78 µg/mL; neutralization ID50 [20]: 10.4 µg/mL; Mab ID50 (neutralization) [21]: 12.5 µg/mL; Mab ID50 (neutralization) [9]: 25 µg/mL |
| huMab IgG1 b12 (antibody) | > 100 | > 100 | > 100 | > 100 | > 100 | 25 | 100 | 1.56 | > 100 | 25 | 1.56 | 9.38 | 0.78 | > 100 | 31.2 | 50 | – |
